Assay: yeast display, Sf9 membrane polyspecificity reagent, FACS + sequencing; frameworks hold sequencing errors
Procedure, shortened: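 After 36–48 hours of galactose induction, yeast (Saccharomyces cerevisiae BJ5465) displaying a synthetic nanobody library were stained at 4 °C for 1 hour with 10% biotinylated, detergent-solubilized Sf9 membrane reagent. Streptavidin microbeads enriched the stained cells before FACS sorting into low and high (top ~1%) gates on anti-HA and streptavidin fluorescence. Each clone's polyreactivity label reflects its gate of origin.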

Sequence	polyreactivity (PSR sort gate)
QVQLVESGGGLVQAGGSLRLSCAASGRTFYSYAMGWSRQAPGKERELVAAISRAGGTYYADSVKGRFTLSRDNAKNTVYLQMNSLKPEDTAVYYCAARQAVYGLRSDFYYWGQGTQVTVSS	high polyreactivity
QVQLVESGGGLVQAGGSLRLSCAASGSIFENYAMGWYRQAPGKERELVAAITSSGASTYYADSVKGHFTISRDNEKNTVYIQMNILKPEDTAVYYCAADSAFYDEYQEDYWGQGTQVTVSS	low polyreactivity
QVQLVESGGCLVQAGGSLRLSCAASGSIFKGYAMGWSRQAPGKERELVAAITIDGSTYYADSVKGRFTISRDNAKNTVYLQMNSLKPEDTAVYYCAAVYLWYGSWPLHFAAYDYWGQGTQVTVSS	low polyreactivity
QVQLVESAGGLVQAGGSLRLSCAASGSTFYLNAMGWYRQAPGKERELVATINSSGSTYYADSVKGRFTISRDNAKNTVYLQMNSLKPEDTAVYYCNTVDSYVRSDYWGQGTQVPVSS	low polyreactivity
QVQLVESGGGLVQAGGSLRLSCAASGSIFYSYAMGWYRQAPGKERELVAAISTTGGSTYYADSVKGRFTISRDNAKNTVYLQMNSLKPEDTAVYYCAREQGFRGDWYDYWGQGTQVTVSS	high polyreactivity
QVQLVESGGGLVQAGGSLRITCAGSGRTFFGYAMGWYRQAPGKERELVAAITRGGSTNYADSVKGRFTISLDNGKNTLYLQMNSLKPEDSAVYYCAVGVPTTFKNRRYFRMDYWGQGTQGTVSS	high polyreactivity
QVQLVESGGGLVQAGGSLRLSCAASGPIFVHNAKGWYRQAPGTERELVAAISWRATRTYYADSVKGRFTISRDNAKNTVYLQMNSLKPEDTAVYYCAAVTPAYSTSTSSYDYWGQGTQVTVSS	high polyreactivity
QVQLVESGGGLVQAGGSLRLSCAASGFIFDGYAMGWYRPAPGKERELVAAIDSGGDRTYYADSVKGRFTISRDNAKNTVYLQMNSLKPEDTAVYYCAADSSDPTGYDYWGQGTQVTVSS	low polyreactivity
QVQLVESGGGLVQAGGSLRLSCAASGSTLYRNAMGWYRQAPGKERELVAAISSSGGTTFYADSVKGRFTISGDNAKNTVYLQMNCLKPEDSAVYYCIRTARKLRTVHSSVVGLDYWGQGTQVTVSS	low polyreactivity
QVQLVESGGGLVQAGGSLRLSCAASGGTFPRYAMGWYRQAPGKERELVAAINQSGGRTYYADSVKGRFTISRDNAKNTVYLQMNSLKPEDTADYYCAAGYGWRTSYLSYGYWGQGTQVTVSS	high polyreactivity
QLQLVESGGGLVQAGGSLRLSCAASGFTFGVYAKGWYRQAPGKEREFVAAISWRGGSTYYADSVKGRFTISRDNAKITVYLQMNSLKPEDTAVYYCAADVLERGYGHYNYWGQGTQVTVSS	high polyreactivity
QVQLVESGGGIVQAGGSLRLSCAASGSTFTANAMGWYRQAPGKERELVAAISRSGGSTYYADSVKGRFTISRDNAKNTVYLQMNSLKPEDTAVYYCAAESPLFSPPDGEDYWGQGTQVTVSS	low polyreactivity
QVQLVESGGGLVQAGGSLRLSCPASGFTFGSYAMGWYRQAPGKETEFVAVITRSGRTNYADSVKGRFTISRDNAKNTVYLQMNSLKPEDTAVYYCYADDVDDEVSPDLTEMDYWGQGTQVTVSS	low polyreactivity
QVQLVESGGGLVQAGGSLRLSCAASGRTFYRYAMGWYRQAPGKEREFVAAISGSGGRTYYADSVKGRFTISRDNAKNTVYLQMNSLKPEDTAVYYCNAYPHAYTGSTREGDYWGQGTQVTVSS	high polyreactivity
QVQLVESGGGLVQAGGSLRLSCAASGRTFRLYAMGWYRHAPGKERELVAAISRRGGSTYYADSVKGRFTISRDNAKNTVYLQMNSLKPEDTAVYYCAKGLGSGQEIYGYDYWGQGTQVTVSS	high polyreactivity
QVQLVESGGGLVQAGGSLRLSCAASGRIFGRYAMGWYRQAPGKERELVAAITSGGSTKYADSVKGRFTISRDNAKNNVDLQMNSLKPEDTAVYYCAVVPYGPVYRSYYYWGQGTQVTVSS	high polyreactivity

Sequence	polyreactivity (PSR sort gate)
QVQLVESGGGLVQAGGSLRLSCAASGRTFIRNAMGWYRQAPGKERELVAAISGTGGSTYYADSVKGRLTISRDNAKNTVYLQMNSLKPEDTAVYYCAADRPAPGYDYWGQGTQVTVSS	low polyreactivity
QVQLVESGGGLVQAGGSLRLSCAASGFTFRHYAMGWYRQAPGKERELVARIRGGGVSTYYADSVKGRFTISRDNAKNTVYLQMNSLKPEDTAVYYCNAVYESWWGDYDYWGQGTQVTVSS	high polyreactivity
QVQLVESGGGLVQAGGSLRLSCAASGRIFGRYAMGWYRQAPGKERELVAAISRRGGTTYYADSVKGRFTISRDNAKNTVYLQMNSLKPEDTAVYYCNADTYGYGFDYWGQGTQVTVSS	high polyreactivity
QVQLVESGGGLVQAGGSLRLSCAASGSTFDGYAMGWYRPAPGKERELVAGISTSGGSTYYADSVKGRFTISRDNAKNTVYLQMNSLKPEDSAVYYCAAEWFDQVKDPAADYISYEYWGQGTQVTVSS	low polyreactivity
QVQLVESGGGLVQAGGSLRLSCAASGFTLFQNAMGWYRQAPGKERELVAAISTGGSTYYADSVKGRFTISRDNAKNTVYLQMNSLKPEDTAVYYCAAVWPYRGSRKYYSWGQGTQVTVSS	high polyreactivity
QVQLVESGGGLVQAGGSLRLSCAASGLIFTYYTMGWYRQEPGTERELVATINWNTSSTYYADSVKGRFTISRDNAKNTVYLQMNSLKPEDTAVYYCNKRIAESDTTVTYDYWGQGTQVTVSS	low polyreactivity
QVQLVESGGGLVQAGGSLRLSCSASGSTFYLYAMGWYRQAPGKEREFVADISLSGDSTYYADSVKGRFTISRDNAKNTVYLQMNSLKPEDTAVYYCAADVFYPGPWSYEYWGQGTQVTVSS	low polyreactivity
QVQLVESGGGLVQAGGSLRLSCAASGFTFYNYAMGWYRQAPGKERELVAAISYSGGSTYYADSVKGRFTISRDNAKNTVYLQMNSLKPEDTAVYYCAVVWWIQYVPGSYHAGYYWGQGTQVTVSS	high polyreactivity
QVQLVESGGGLVQAGGSLRLSCAASGRTFDGYTMGWYRQAPGKERELVAAISGGGGSTYYADSVKGRFTISRDNAKNTVYLQLNSLKPEDTAVYYCNKVVRQHGGLYNYWGQGTQVTVSS	low polyreactivity
QVQLVDSGGGFFQAGGSLRLSCAPSGITFVVYAMGWYRQAPGKERDLVAAITAGGSTYADSVKGRFTISRDNAKTTVYLQMNSLKPEDTAVYDCNTGLYLYVGLGDHDYWGQGTQVTVSS	low polyreactivity
QVQLVESGGGLVQAGGSLRLSCAASGRIFGFYAMGWYRQAPGKERELVARITLSGGRTYYADSVKGRFTISRDNAKNTVYLQMNSLKPEDTAVYYCAADSIGRLWGYGYWGQGTQVTVSS	high polyreactivity
QVQLQESGGGLVQAGGSLSCAASGNIFYIKYMGWYRQEPGKEREFVASIAHGTSTYYADSVKGLFTISRDNAKNTVYLQMNSLKPVDTAVYYCAAVTQSYYSYYYWGQGTQVTVSS	low polyreactivity
QVQLVESGGGLVQAGGSLRLSCAASGSTFATYAMGWYRQAPGKERELVAVITRGGRTYYADSVKGRFTISRDNAKNTVYLQMNSLKPEDTAVYYCAAKAYTYYARIGFDYCGQGTQVTVSS	high polyreactivity
QGQLVESGGGLVQAGGSLRLSCAASGRIFRIYAMGWYRQAPGKERELVARITYSGGSTYYADSVKGRFTISRDNAKNTVYLQMNSLKPEDTAVYYCAADWLGYQYGYWGQGTQVTVSW	low polyreactivity
QVQLVESGGVLVQAGGSLRLSCAASGSTFSRYAMGWYRQAPGKETELVAAINWSGGRTYYADSVKGRFTISRDNAKNTVYLQMNSLIAADTAVYFCAADGRRYSGEYYYWGQGTQVTVSS	high polyreactivity

Source: the nanobody polyreactivity screen of Harvey et al. (2022)
